The values below come from publication PMC6155552, “Arabidopsis thaliana alcohol dehydrogenase is differently affected by several redox modifications” (PLoS ONE, 2018).

Data set [1] addresses T1, ADH (recombinant A. thaliana alcohol dehydrogenase, ADH1, At1g77120) (Arabidopsis thaliana, UniProt P06525).
T1 construct: tag removal not mentioned
T1 sequence (P06525 1-379): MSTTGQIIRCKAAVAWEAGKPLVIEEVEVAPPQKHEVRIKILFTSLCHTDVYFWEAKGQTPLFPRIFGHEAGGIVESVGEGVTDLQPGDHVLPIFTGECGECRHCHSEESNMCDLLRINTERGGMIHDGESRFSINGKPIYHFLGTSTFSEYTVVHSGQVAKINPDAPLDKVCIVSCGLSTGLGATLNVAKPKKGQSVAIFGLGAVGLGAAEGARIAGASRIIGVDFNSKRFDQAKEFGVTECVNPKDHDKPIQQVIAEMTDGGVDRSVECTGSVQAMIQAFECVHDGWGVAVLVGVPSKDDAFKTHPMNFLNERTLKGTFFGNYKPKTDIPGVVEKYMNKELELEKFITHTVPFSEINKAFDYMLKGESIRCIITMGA
Kind of data set: protection of activity against inactivation by H2O2 or DEA/NO. The class given is biochemical. To be noted: 0.02-0.2 mM NADH; 0.5 mM H2O2 or DEA/NO; 100 mM Tris-Cl pH 7.5; room temperature.

Substrate in data set [2]: NC(=O)c1ccc[n+]([C@@H]2O[C@H](COP(=O)(O)OP(=O)(O)OC[C@H]3O[C@@H](n4cnc5c(N)ncnc54)[C@H](O)[C@@H]3O)[C@@H](O)[C@H]2O)c1
Kind of data set: microplate ADH activity assay, non-linear regression. The class given is biochemical, Arabidopsis thaliana. As to conditions: ethanol-to-acetaldehyde direction; NAD+ varied 0-0.8 mM; 5 mM DTT. An excerpt: microplate ADH activity assay, non-linear regression on ADH (recombinant A. thaliana alcohol dehydrogenase, ADH1, At1g77120)

Positions count from the first letter of the chain named. In names and notes the source's numbering stands.

Take `NC(=O)C1=CN([C@@H]2O[C@H](COP(=O)(O)OP(=O)(O)OC[C@H]3O[C@@H](n4cnc5c(N)ncnc54)[C@H](O)[C@@H]3O)[C@@H](O)[C@H]2O)C=CC1` [NADH]: the “protection of activity against inactivation by H2O2 or DEA/NO” value in data set [1] was “presence of NADH allows the enzyme to keep a significantly higher activity level”.

B1: ADH (recombinant A. thaliana alcohol dehydrogenase, ADH1, At1g77120) (Arabidopsis thaliana) (protein)
chain: T1 sequence (P06525 1-379)
notes: tag removal not mentioned
On to B1, for which, in data set [2], the Km is listed as 0.166 ± 0.017 mM, the kcat was 31.5 ± 2.7 s⁻¹ and the kcat/Km was 191000 ± 8000 M⁻¹ s⁻¹.

B2: ADH (recombinant A. thaliana alcohol dehydrogenase, ADH1, At1g77120) (Arabidopsis thaliana; C243S) (protein)
chain: T1 sequence (P06525 1-379) with C243S
notes: tag removal not mentioned
With B2, in data set [2], the Km is reported as 0.251 ± 0.017 mM, the kcat was found to be 52.1 ± 3 s⁻¹ and the kcat/Km was 208000 ± 5000 M⁻¹ s⁻¹.

The term Km denotes the substrate concentration at which the rate is half of its maximum. One may read the kcat as the maximal rate divided by the concentration of active sites. The kcat/Km is the second-order rate constant that governs catalysis at low substrate concentration.
